The values below come from article PMC10447535.

A short description of series [1]: cycloheximide chase immunoblot, MKN28. To be noted: glycan lost; control: KIAA1324 WT. (In general: In western blotting, separated proteins are transferred to a membrane and probed.)
Series [2] is described as follows: immunofluorescence, cell surface level, MKN28. As to conditions: glycan lost; control: KIAA1324 WT.

B1: KIAA1324 (ELAPOR1, inceptor): 3NQ (protein)
parent chain: MAEPGHSHHLSARVRGRTERRIPRLWRLLLWAGTAFQVTQGTGPELHACKESEYHYEYTACDSTGSRWRVAVPHTPGLCTSLPDPIKGTECSFSCNAGEFLDMKDQSCKPCAEGRYSLGTGIRFDEWDELPHGFASLSANMELDDSAAESTGNCTSSKWVPRGDYIASNTDECTATLMYAVNLKQSGTVNFEYYYPDSSIIFEFFVQNDQCQPNADDSRWMKTTEKGWEFHSVELNRGNNVLYWRTTAFSVWTKVPKPVLVRNIAITGVAYTSECFPCKPGTYADKQGSSFCKLCPANSYSNKGETSCHQCDPDKYSEKGSSSCNVRPACTDKDYFYTHTACDANGETQLMYKWAKPKICSEDLEGAVKLPASGVKTHCPPCNPGFFKTNNSTCQPCPYGSYSNGSDCTRCPAGTEPAVGFEYKWWNTLPTNMETTVLSGINFEYKGMTGWEVAGDHIYTAAGASDNDFMILTLVVPGFRPPQSVMADTENKEVARITFVFETLCSVNCELYFMVGVNSRTNTPVETWKGSKGKQSYTYIIEENTTTSFTWAFQRTTFHEASRKYTNDVAKIYSINVTNVMNGVASYCRPCALEASDVGSSCTSCPAGYYIDRDSGTCHSCPTNTILKAHQPYGVQACVPCGPGTKNNKIHSLCYNDCTFSRNTPTRTFNYNFSALANTVTLAGGPSFTSKGLKYFHHFTLSLCGNQGRKMSVCTDNVTDLRIPEGESGFSKSITAYVCQAVIIPPEVTGYKAGVSSQPVSLADRLIGVTTDMTLDGITSPAELFHLESLGIPDVIFFYRSNDVTQSCSSGRSTTIRVRCSPQKTVPGSLLLPGTCSDGTCDGCNFHFLWESAAACPLCSVADYHAIVSSCVAGIQKTTYVWREPKLCSGGISLPEQRVTICKTIDFWLKVGISAGTCTAILLTVLTCYFWKKNQKLEYKYSKLVMNATLKDCDLPAADSCAIMEGEDVEDDLIFTSKKSLFGKIKSFTSKRTPDGFDSVPLKTSSGGLDMDL
Turning to B1, the “degradation_or_half_life, other: protein level remaining at 2 h” value in series [1] is given as “decreases”. Also, the localisation_or_trafficking entry in series [2] is “decreases”.
